Laboratory results taken from patent US20070190054A1.

Columns and labels:
[1] = target: C3b (purified; species not stated in Examples 12, 13, 19, 20) (UniProt P01024); experiment: ELISA; conditions: Fc fusion
[2] = target: murine C3 or a fragment of C3, deposited on particles opsonized with mouse serum (mouse) (UniProt P01027); experiment: cell-based or functional assay
[3] = target: murine C3 or a fragment of C3, deposited on particles opsonized with mouse serum (mouse) (UniProt P01027); experiment: flow cytometry; conditions: Fc fusion
Target sequence in this assay (P01027 25-666, chain 1 of 2): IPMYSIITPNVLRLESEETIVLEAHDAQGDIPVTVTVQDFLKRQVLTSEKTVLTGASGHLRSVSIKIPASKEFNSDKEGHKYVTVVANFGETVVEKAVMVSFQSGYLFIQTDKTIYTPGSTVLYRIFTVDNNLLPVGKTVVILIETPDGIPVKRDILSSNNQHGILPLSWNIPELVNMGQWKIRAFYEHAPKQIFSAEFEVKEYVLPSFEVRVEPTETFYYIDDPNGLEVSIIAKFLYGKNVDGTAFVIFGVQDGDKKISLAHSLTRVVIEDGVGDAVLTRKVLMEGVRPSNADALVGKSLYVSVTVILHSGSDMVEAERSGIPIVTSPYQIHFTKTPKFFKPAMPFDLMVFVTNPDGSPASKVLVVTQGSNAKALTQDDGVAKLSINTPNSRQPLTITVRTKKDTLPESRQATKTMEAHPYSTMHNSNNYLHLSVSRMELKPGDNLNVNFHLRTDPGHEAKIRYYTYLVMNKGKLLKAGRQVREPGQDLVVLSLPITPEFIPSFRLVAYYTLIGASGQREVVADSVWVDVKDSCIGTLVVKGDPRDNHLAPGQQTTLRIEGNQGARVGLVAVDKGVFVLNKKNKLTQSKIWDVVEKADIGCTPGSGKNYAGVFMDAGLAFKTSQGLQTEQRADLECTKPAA
Target sequence in this assay (P01027 749-1663, chain 2 of 2): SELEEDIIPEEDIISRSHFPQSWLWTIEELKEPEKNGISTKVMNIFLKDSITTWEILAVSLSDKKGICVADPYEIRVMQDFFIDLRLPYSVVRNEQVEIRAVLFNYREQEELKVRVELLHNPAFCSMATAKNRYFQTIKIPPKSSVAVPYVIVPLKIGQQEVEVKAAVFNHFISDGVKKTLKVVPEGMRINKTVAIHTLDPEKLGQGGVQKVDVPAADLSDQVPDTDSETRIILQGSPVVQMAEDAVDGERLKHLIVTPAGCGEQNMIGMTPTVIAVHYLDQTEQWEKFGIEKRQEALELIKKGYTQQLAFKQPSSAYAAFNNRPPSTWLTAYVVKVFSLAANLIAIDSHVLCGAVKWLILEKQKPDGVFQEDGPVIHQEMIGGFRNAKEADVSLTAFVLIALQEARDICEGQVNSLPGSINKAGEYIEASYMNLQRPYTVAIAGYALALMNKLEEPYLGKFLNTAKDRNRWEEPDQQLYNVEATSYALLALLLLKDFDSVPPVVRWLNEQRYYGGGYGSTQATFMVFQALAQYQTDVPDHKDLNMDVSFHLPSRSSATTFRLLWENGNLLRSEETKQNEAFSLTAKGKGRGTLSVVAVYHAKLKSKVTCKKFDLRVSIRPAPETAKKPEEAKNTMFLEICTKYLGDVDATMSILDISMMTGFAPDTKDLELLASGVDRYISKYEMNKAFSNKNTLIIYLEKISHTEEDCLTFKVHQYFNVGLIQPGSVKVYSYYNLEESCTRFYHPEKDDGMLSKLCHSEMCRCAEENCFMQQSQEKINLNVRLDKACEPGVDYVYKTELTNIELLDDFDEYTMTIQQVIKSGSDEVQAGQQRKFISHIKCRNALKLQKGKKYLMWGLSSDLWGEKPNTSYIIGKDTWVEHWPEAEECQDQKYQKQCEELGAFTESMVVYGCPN

[4] = target: C3b dimers (C3b2) (human) (UniProt P01024); experiment: SPR, CRIg-Fc captured on a CM5 chip via an antibody to the Fc tag, dimeric C3b injected, response at equilibrium

Row | Substance | Kd [1] | Kd [4] | also measured
1 | human CRIg-Fc fusion protein (long or short form not specified) (from UniProt Q9Y279 20-283) | 75 nM |  | 
2 | complement receptor 3 (CR3) on mouse Kupffer cells (from UniProt P05555 17-1153; P11835 24-771) |  |  | further reduction in rosette formation with the addition of CR3 blocking antibody [2]: < 20%
3 | murine CRIg expressed on the cell surface (receptor) |  |  | reduction in E-IgM rosetting of CRIg ko KCs compared to CRIg wt KCs [2]: 60%
4 | murine CRIg-Fc fusion protein | 50 nM |  | Kd [3]: 17 nM
5 | huCRIg(L)-Fc fusion protein (from UniProt Q9Y279 20-283) |  | 131 nM | 
6 | huCRIg(S)-Fc fusion protein (from UniProt Q9Y279 20-283) |  | 44 nM | 
